B1: Far upstream element-binding protein 3, residues 75 to 150; numbered along this chain, Q96I24 (parent)
chain: RTVITEEFKVPDKMVGFIIGRGGEQISRIQAESGCKIQIASESSGIPERPCVLTGTPESIEQAKRLLGQIVDRCRN

Variants of: B1
Assay: abundance fitness (aPCA) (normalised: wild type 0, dead -1); higher = more abundant; growth selection in yeast, the domain comes from the species named
Details: Homo sapiens

Abundance fitness, by site and new letter:
G23: F -0.117; E -0.037; S -0.087; H -0.077; K -0.082; I -0.294; M -0.078; D -0.091; Y -0.182; R -0.056; N -0.058; T -0.1; C -0.17; Q -0.042; V -0.193
I4: N -0.081; Q -0.087; S -0.141; L -0.081; T -0.045; V -0.047; W -0.125; K -0.035; Y -0.006; R -0.065
E6: V -0.051; R -0.099; L -0.235; H -0.09; F -0.16; Q -0.068; K -0.018; Y -0.145; D -0.084; C -0.022; S -0.042; A -0.067; N -0.242; M -0.103; W -0.375; G -0.19; P -0.807; T -0.06; I -0.111
M14: G -0.311; R -0.423; A -0.172; C -0.063; P -0.451; Q -0.248; L -0.061; N -0.101; V -0.159; I -0.33; D -0.126; F -0.127; W -0.063; H -0.089; K -0.345; Y -0.176; E -0.216
E7: L -0.048; I -0.048; V -0.036; F 0.088; P -0.136; A -0.078; Q -0.072; H -0.002; K -0.01; G -0.083; C -0.135; R -0.057; M -0.111; D -0.02; T -0.002; S -0.019; Y -0.037
D12: P -0.058; Q -0.155; V -0.137; W -0.255; S -0.027; M -0.144; L -0.173; T -0.073; Y -0.116; N -0.004; E -0.053; G -0.095; R -0.1; F -0.186; K -0.066; A -0.024
I19: C -0.093; K -0.057; M -0.062; T -0.039; D -0.071; N -0.001; H -0.163; G -0.102; W -0.096; V -0.033; Q -0.048; E -0.081; L -0.024; S -0.045; P -0.25; A -0.074; R -0.045
G16: M -0.12; E -0.001; V -0.172; L -0.148; K 0.018; W -0.21; I -0.194; S -0.032; Y -0.135; R -0.037; F -0.223; D -0.003; C -0.074; H -0.042; P -0.029; T -0.063; Q -0.027; N -0.055
E24: A -0.008; D -0.053; F -0.043; C 0.031
K9: G -0.006; M -0.016; Y -0.114; R -0.09; T -0.057; F -0.031; W -0.053; E -0.044; D -0.129; I -0.106; H 0.012; C -0.057; S 0.025; Q -0.007; A -0.006; V -0.047; L -0.021; N -0.109
V10: P -0.514; G -0.634; D -0.479; H -0.4; N -0.612; T -0.407; F -0.055; I -0.036; Y -0.291; M -0.122; W -0.295; L -0.036; K -0.794; R -0.8; A -0.287; Q -0.675; E -0.631
T5: Q -0.099; P -0.394; K -0.068; C -0.203; S -0.082; Y -0.164; D -0.204; V -0.09; W -0.192; F -0.201; R -0.063; H -0.071; G -0.3; E -0.043; L -0.314; I -0.231
I18: P -0.192; W -0.243; Y -0.261; S -0.271; R -0.425; K -0.279; F -0.133; Q -0.234; H -0.279; N -0.295; E -0.182; M -0.079; V -0.085; L -0.085; G -0.272; D -0.142; A -0.225
G22: N 0.006; E -0.044; F -0.1; V -0.191; T -0.09; Q -0.085; C -0.057; D 0.016; S -0.078; R -0.012; Y -0.161; K -0.007; P -0.276; A -0.045; W -0.149; I -0.086
V15: Y -0.141; I -0.111; P -0.37; K -0.119; N -0.349; F -0.072; T -0.158; S -0.102; H -0.218; E -0.183; Q -0.162; A -0.059; G -0.135; L -0.061; M -0.073; C -0.108; D -0.324
K13: F -0.243; T -0.073; D -0.082; A -0.054; M -0.207; V -0.263; I -0.286; R -0.046; Q -0.017; H 0.016; E -0.032; W -0.142; N 0.004; G -0.027; Y 0.022; L -0.198; S -0.018; C -0.058
F17: N -0.141; S -0.034; P -0.095; I -0.05; Y -0.019; H -0.026; G -0.06; E 0.025; L -0.065; Q -0.031; R -0.018; V -0.028; W -0.052; D 0.081; C -0.074; A -0.013
R21: I -0.107; E 0.004; Y -0.182; D -0.071; K -0.025; N 0.004; F -0.147; V -0.057; L -0.057; T 0.009; G -0.064; A 0.005; W -0.187; H -0.028; Q -0.009; M -0.002; C -0.089; S 0.005
F8: S -0.18; C -0.317; D -0.208; W -0.027; T -0.042; L -0.097; E -0.351; M -0.083; Y -0.024; P -0.651; K -0.397; R -0.543; V -0.064; Q -0.34; H -0.173; N -0.353
G20: M -0.312; E -0.127; C -0.459; R -0.168; W -0.483; L -0.474; D -0.104; Y -0.524; V -0.707; A -0.118; S -0.151; H -0.243; N -0.17; T -0.228; P -0.347; Q -0.116
P11: S -0.182; M -0.259; I -0.297; Y -0.303; L -0.236; H -0.217; F -0.422; C -0.239; T -0.136; Q -0.235; K -0.298; D -0.061; R -0.288; E -0.109; G -0.254; A -0.219

From the Human Domainome abundance scans (Beltran et al. 2025)
